# Reference: a protein production outcome set (Wang et al. 2014)
# Experiment: label from the status in PepcDB records
row,Sequence,protein production
1,MNKSTCLMAAETPSKRWRLHCLAFSQRFVRAGPACSSREACSSPRAGWNPAGFRLPGRWSPFVALHLVCQIREALKLRSGHRTPSGAGSSMQPPPSLCGRALVALVLACGLSRIWGEERGFPPDRATPLLQTAEIMTPPTKTLWPKGSNASLARSLAPAEVPKGDRTAGSPPRTISPPPCQGPIEIKETFKYINTVVSCLVFVLGIIGNSTLLRIIYKNKCMRNGPNILIASLALGDLLHIVIDIPINVYKLLAEDWPFGAEMCKLVPFIQKASVGITVLSLCALSIDRYRAVASWSRIKGIGVPKWTAVEIVLIWVVSVVLAVPEAIGFDIITMDYKGSYLRICLLHPVQKTAFMQFYKTAKDWWLFSFYFCLPLAITAFFYTLMTCEMLRKKSGMQIALNDHLKQRREVAKTVFCLVLVFALCWLPLHLSRILKLTLYNQNDPNRCELLSFLLVLDYIGINMASLNSCINPIALYLVSKRFKNCFKSCLCCWCQSFEEKQSLEEKQSCLKFKANDHGYDNFRSSNKYSSS,failed
2,MHRFLSGPLSVEQLTVNIAGLSASLQGKKLVHLSDFHYDGLRLSEEMLAEAIAVSNQVQPDLVLLTGDYVTTTPQPIHQLAKRLQKLQSHAGIYAILGNHDLYQKNSKTEITQALTKAGIQVLWNEIAYPLGEELPIVGIVDYYYREFNPQLLFNQLEPTTPRIVLCHNPDTAAMLQGWRVDLQLSGHTHGGQIVIPGLGAVLPYHKKIVRRVPIKIRRLFPLFFKDYFIVRHAEWLQGLHRIGKNQLYVNRGLGTYLPGRLFCPPELTVITLEAE,failed
3,MAKIKKYTTKTGKIRYEFQVYAGVDSLTGRQKTTRRRGFKTRKEASIVLSRLELEIEKRGLQEDERRFFRDVCAEWMEQYRLTVRESTLEKTQRIINIHVLPAFGDMVINNITPNVCQKVVNKWFLEAKSYKKWLNYASMIFDYALRAEYVGRNPCTLVTMPRVQEQAGEKLENFWTRDELNTFFDYVTPERDVEQFTMFRVLAYSGIRKGELLALTWKDINFEDNTLRVNKTLTQGLGGKLIVQPPKSRAGRRTIDLDDSTMRYLRQWKGVQRETFLGMGFNTNNVDQLVFASNRNHFRSMNTPTKWLNKAIKATGLKHISIHGFRHTHASLLYQSGVGLKETQQRLGHSRADSSVTLDVYTHTTEQQNVAALQRFENYVEAK,failed
4,MIELQLELFPGHIAGLLLVELSKPVEDFASIFIQGTWECALLDAGVVFHKSQLLTAVNVAFQRFEAGRLKTHSLHNEVMLALSAKLSIRDGLAAVRFSWEKTRCLVVAVDPPASFPQAAESTSNALAAKVRHFPEGANELFNELLVHVDKPSIQNLYGTDIDPHWICTKIATVEYVRQLR,failed
5,MGFEVRRRLSVADTVTLFNAVVGFVAGAIAFTDPHLAARLILLAVIADAIDGIVARNGDSSAVGPLLDSVTDVVSFGATPSLFLYVLLTDAYGGIESAHPAVFVGLALLASAYVVCSIVRTAFYSTYFDSPDERPGMPNTLGSIIIATAYLSGITNPLVLSVGALGLSLAMIAPFDYPKPGPKHAVPMGVVQAVAVVAPAALFRAGPRAMLAIALLFFALGPWFYPGE,failed
6,MLEGEFLSVAELKDLTLSLASKFLNNLLASKLLVSKQLFIDRKKELGLLEERLKSGKAQFIVIYGRRRVGKTALILEFLRRHGGLYLLARETSEIENLERFSLRLAEYFNDSFLKKNPLRSLDAFFEYLSTKAEKPFIIAIDEFPYLVKGNKALPSILQEYWEMKLSKKKIFLIVSGSSVSMTERLLGYKSPLYGRRTAQLKLKPLDFFNAREFLPKYSLEDFVRVYGILGGTPAYLLEFSDEKSLEENLKSYFRVDSLLYGDALFILREELDEPRNYFAIMEAIARGNTTLGEIVNETGLERATVGKYLSVLIDLDLVRREVPITASRKSRKGRYYIADNYFAFWFRYVYPNADLIESGNGELLVDTVMDDIDHYTGEVFEGVAKEFLLRLNKSERLPFRFSRVGRWWYKNEEIDLVALNEREKKVLFIEVKWKDLSKREARGILKDLKRKAKLVGLDEWGKHYGLVAKSVRGKDEIKEEGWLAWDLEDIHRMAFLEHHHHHH,failed
7,MLYIDKATILKFDLEMLKKHRRAIQFIAVLLFIVGLLCISFPFVSGDILSTVVGALLICSGIALIVGLFSNRSHNFWPVLSGFLVAVAYLLIGYFFIRAPELGIFAIAAFIAGLFCVAGVIRLMSWYRQRSMKGSWLQLVIGVLDIVIAWIFLGATPMVSVTLVSTLVGIELIFSAASLFSFASLFVKQQ,failed
8,MAETTPKVKGHVVILPYPVQGHLNPMVQFAKRLVSKNVKVTIATTTYTASSITTPSLSVEPISDGFDFIPIGIPGFSVDTYSESFKLNGSETLTLLIEKFKSTDSPIDCLIYDSFLPWGLEVARSMELSAASFFTNNLTVCSVLRKFSNGDFPLPADPNSAPFRIRGLPSLSYDELPSFVGRHWLTHPEHGRVLLNQFPNHENADWLFVNGFEGLEETQDCENGESDAMKATLIGPMIPSAYLDDRMEDDKDYGASLLKPISKECMEWLETKQAQSVAFVSFGSFGILFEKQLAEVAIALQESDLNFLWVIKEAHIAKLPEGFVESTKDRALLVSWCNQLEVLAHESIGCFLTHCGWNSTLEGLSLGVPMVGVPQWSDQMNDAKFVEEVWKVGYRAKEEAGEVIVKSEELVRCLKGVMEGESSVKIRESSKKWKDLAVKAMSEGGSSDRSINEFIESLGK,failed
9,MPQPTSQQRASVASSQSTQGAVGWSAATGWVVLFVAVALVVWFVSLDMRHLVGPDEGRYAEISREMFASGDWVTIRYNALKYFEKPPFHMWVTVVGYELFGLGEWQARLAVALSGLLGIGVSMMAARRWFGARAAAFTGLALLAAPMWSVAAHFNTLDMTLAGVMSCVLAFMLMGQHPDASVAARRGWMVACWAAMGVAILTKGLVGIALPGLVLVVYTLVTRDWGLWRRLHLALGVVVMLVITVPWFYLVSVRNPEFPNFFFIHEHWQRYTSNIHSRSGSVFYFLPLVIGGFLPWAGIFPKLWTAMRAPVEGTQARFRPALMAGIWAIAIFVFFSISRSKLPGYIVPVIPALGILAGVALDRLSPRSWGKQLIGMAIVAACGLLASPVVATLNANHIPNSFYRAYAVWVAVAFVVMLLGIAVARLLLRRGVLPSVAVYAMGMYLGFTVALLGHETVGRPASGADIAPQIAQKLTPEMPLYGVQMLDHTLPFYLRHPLMMVGQADELTFGATVEPQRVVPDVDSFTKLWKNGQPAMAVMSPDTYLALAPTLSMYVVARDWRRVVVANVASLAGPQ,failed
10,MMSKVVSKMKSFLGFDEFEDEDEVMEEEEVMEEEESFAPVLSSKKNGKVVNIHTANTAKLMITKPLVYDDATEICTALKNRKIVVINTTSLELRTAQRLIDFVGGACYALCGELQEVEKGVFIVSPSNVEVSNELKSELSNKGMFNWASKLEHHHHHH,not failed
11,MHLPPKLALTTGVLLVALPLATPAWGQPPTPASPLVQQLNNGNWLDPKEAETLRDELYYQRAIHAYMTMLPALNVIGMRDGSEKVFGAGYNVLPVWKERMDARTMVPTPNADVIYSMSYLDLKKTGPLVVKAPANVIGMFTDFFQRTLTDVGAIGPDRARGGLYLILPPDYDGHVPSSYFVVKSPTYNVFLFFRTIMGQGKGKPDPAPAVKAAETTRVYPLWAEEKDIKPMEFPDGSGKHINMMYPVDQEYWTKLKEFVDYEPVSAIDPELRGVLASIGIVKGQPFKPTAREQELLKRAVETAPKMILAMRQLGREDKRHLYYKDRQWERAWAGATAEWMQDSYLDVNQRATFFQIAYSSAPAMVMRTTGAGSKYPFTARDANGEFLNGSATYKLRMPPDAPAALFWAVTAYNVTDGTMPETDQLMPSTNGYYDIPKQKDGSTEIWFGPQKPADVADAAFIKTIPNRNFLVTLRLYGAEDAFYDQTWKPDDVVKVKLEHHHHHH,not failed
12,MTGQELRQLLLDKWGYSYDVQFRRTQGKIFLQVMWKYLEQASFPMNETEYQEHLDSVANYLHALGGAVQVKTFITQTKERPRLGKAVSIPLDLGERASEWIILEHHHHHH,not failed
13,MYTNVHSANNYQANLSNRSYGFKELAVLYFPNIAPASASIRLKQWIKDDVELLGSLEETNYHLSNRILTPKQRDLITTTFGSPFLEHHHHHH,failed
14,MHSEMTVPGFETRLAKVQDVWRDNRCLKSSSIGQYLYWIHRFHHYCIAEALDADEQLTQAGVSLFAQWYARQRRVDAECACQGAQSALRAWALGLSTLGVEIPPWQCDTDRTSESEPRLQDFAEHLRQHRGNPEATIKKKLAHIRCFLAFIAARHRPLRHLKLTDIDAFLVDCSQRYARTTTADIGSSLRGYVRFLLVTGQVTADLAPSIVTPIVRHYEQPLRALPWDDVRHILAAIDRSSPIGLRDYALLLLMSTYGLGAGEVIRLTLDDIDWQAATLRVVRPKTGVAFVLPLLPALAQALADYLKHGRPRRAPSRHVFQSMRAPHYPLSESSAIRHILVGHARKAGVTAAYLGSHVLRHTHACRQVEQEISPKVLSDILGHRSPESLSAYVRIATERLRQLPLPVPE,failed
15,MKLLNVLLLTTSLSVFYTYAETDYQWLRDDSRSEPAVKQFLAEHNRKTDHWFAPAKPLVQELVNEWQQTSQHKAPPPALIYANQQYNDIQWNGHRHIVKIGAQGQIEPLLNLSARAEPFDYYQLASWSLDRSVQSVALAEDTRGDEQFKLTIVRLADRTEQIVSETASTYFAWAADGKSLYYLSDLNGSTQLQRFELETGQSTRLAEWRSAEWLFSLYSASNPRYLVVQQNNENSTQQRLLDTQTGELMPWLRTTEPGLEYYADVLGETLYINSNHQGAFRLYRQPLHTKQDWQSVTTHKEIGSLSNFYLFDAGIVLVENQTLAPKVWVLDSQGEVRTHFELRDLGQVAWISRNGDAVSNRLRVRTMSMTEPASWHELDVAQLQWQQLSQDHYADFDPKQYQTQTVWVTQGAIQVPVTLAYRSDKLTPNSSVVLYGYGAYGVTMKPYFMPQIVSLLDRGMIYAIAHVRGGGYLGEAWHQAGAGLNKQNGIDDFLAAARYLTHFQQGERAIYTIGGSAGGTLVAAALNQQPNLFAGAVLQVPFVDVLASMSDTSQALTAQQYQEWGNPQQPEQRQVMQAYDPLSNLRAAPYPPTLVNVGWWDNRVPYWEGARYLARLSDVSQGAGPYLLSTDFQAGHASDRRQALEKQAREYAFFLTLDKTRKAGQ,failed
16,MILAVLFANSVGNVLIERFNGVPAEERLHWRSFLVKLGADNLKGVKNEELLVACHKSVYIVYTMLGDVSIFLVGKDEYDELALAETIYIITAAVKDVCGKPPTERVFLDKYGRICLCLDEIVWNGLLENTDKDRIKRLIRLKPPSEV,failed
17,TLGKETKTTVHKFGLEPPSELIQKQLRANLDDDIWEVIRSRKIDGEHVILDKDYFFRKHVPHLTKEICENSIYEYIEGELGLSISYAQKEIVAEPCTDEDRELLDLRGYDHMVVVRNYVFLEDTSLFQYTESRHRLDKFRFVDFARRGK,not failed
18,MLSKRDAILKAAVEVFGKKGYDRATTDEIAEKAGVAKGLIFHYFKNKEELYYQAYMSVTEKLQKEFENFLMKNRNRDIFDFMERWIEKKLEYSASHPEEADFLITLVSVDEGLRKRILLDLEKSQRVFFDFVREKLKDLDLAEDVTEEIALKFLMWFFSGFEEVYLRTYQGKPELLKRDMNTLVEEVKVMLRILKKGMTK,not failed
19,MQLAINKIYRRIFISMDTGVSDHGIEIIGVDPIPGTSRIMGPWKMTVFWSMASASALTPLIGYLLYPLGLIDMLIAISIAFLIGFVPVGIFSEMGRTIPVPAMIISRKTLGYASSSVMSLIFTFVNLGWFGLNDITGGLILASVTSSSPIIWISFMAIVQIMLVLFGAKYLEKFYRYTAILLVFSYGILTYLLFRVYRPDMYAVLHPSTAVNWGSAIGLVLAFSILAWAYKVSTISRFARKREAGEPALERSGFFMAPSIGIIVPVYVMGSLGLISEAAAENWNLAAVRFSGLGSIGGAVAIIASIGASLAIIHTNSMNLYPATADLLSAIEGLFNKRLRKFAQPISTAILGTLGAVLAYAGILNYASGFLNLSGSIIFPFTFVLIADWFMMNRHSANSADFYSIPKNGLGNVNLAGISGLIVGVILNLIHINLLNALFLYVPQDIFGSLAGTAVFILVLKAVQKKQAAQEENRSDTVAE,failed
